Test results: patent US20240216513A1, “FATTY ACID-BIFUNCTIONAL DEGRADER CONJUGATES AND THEIR METHODS OF USE” (Novartis AG, priority 2021, published 2024)

Experiments:
[1] = In vivo pharmacokinetic study in rats (i.v. or s.c.), FAC and payload in blood; set-up: species or system rat
Procedure: (§1) Pharmacokinetic studies were conducted in male C57/B16 mice; male Sprague-Dawley rats; male Beagle dogs and male Cynomolgus monkeys. 3 animals per group were used for each study performed. All studies were performed in accordance with local animal welfare regulations.
(§2) […] Serial 30 µL blood samples were collected via venipuncture of the tail vein in mouse, and via the cannulated jugular vein in rats at defined timepoints to 216 hours (into EDTA coated tubes).
(§3) Each blood sample was precipitated with acetonitrile containing internal standard; samples were mixed and centrifuged (20 minutes 4000 RPM at 4° C.). Supernatant was transferred to a microwell plate and evaporated under nitrogen at 60° C. Residue was resuspended in acetonitrile/water (7:3 v/v); plate sealed and transferred to an ultrasonic bath for 3 minutes, prior to analysis. Quantification was performed by LC-MS/MS (SciexAP16500 Q-trap, Shimadzu Nexera X2) using a Phenomenex Polar RP analytical column (2.5 μm particle size; 50×2 mm). The mobile phase consisted of solvent A (0.1% formic acid in water) and solvent B (0.1% formic acid in acetonitrile). The fatty acid conjugate and API were detected using multiple reaction monitoring.
(§4) Data analysis and calculation of non-compartmental pharmacokinetic parameters was
(§5) performed using an in-house analysis. Following intravenous administration whole blood clearance was calculated by the dose administered divided by AUC0-inf. Volume of distribution at steady state was calculated as MRT*CL, where MRT is the mean residence time, calculated by AUMC0-inf/AUC0-inf. The half-life (t1/2) of the terminal elimination phase was calculated by 0.693/λ. For both intravenous and subcutaneous administration, the systemic exposures were determined by calculating the area under the blood concentration time curve (AUC) from time zero to the last observed quantifiable concentration (AUClast) by using the linear trapezoidal method and normalised to dose. Extrapolated AUC (AUC0-inf) is calculated by addition of AUClast and AUCtlast-inf; where AUCtlast-inf is calculated based on Clast/λ. The slope of the terminal elimination phase was estimated by linear regression of the terminal data points (minimum 3 points) from a natural log concentration versus time plot of the data. Bioavailability was calculated as the dose normalized ratio of […] AUCinf to intravenous AUCinf (100*[SC AUCinf/SC dose]/[IV AUCinf/IV dose]). Following subcutaneous administration Cmax is calculated as the average maximum observed peak concentration and Tmax is the time associated with the determined Cmax.
(§6) For PK experiments, non-tumor bearing mice or rats were treated once (10 mL/kg) with a compound either i.v. or s.c. Serial blood samplings from the tail vein (5-20 μl) were collected during the course of the experiment. For PK/PD experiments in tumor-bearing mice, compound was administered once (10 mL/kg) either i.v. or s.c. Animals were randomized into groups of n=3 and tissue samples were collected at several time points. At the times indicated, animals were anaesthetized by exposure to 2-3% v/v isoflurane in medical oxygen. They were sacrificed without recovering from anesthetic after blood sampling into commercially prepared EDTA coated tubes (Milian, cat #TOM-14C) in order to extract plasma. The tissues were excised, weighted and rapidly frozen in liquid nitrogen. Later, tumors were cryogenic dry pulverized with the CryoPrep™ system (model CP-02, Covaris). For efficacy experiments in ectopic tumor-bearing mice, animals were randomized into groups of n=6 for a mean tumor size of 100 mm^3 and compound was administered either i.v. q3w or s.c. q2w. When implanted in brain, animals were randomized into groups of n=4 for a mean bioluminescence of 1.0-2.0E+06 [p/s]/[ρW/cm^2] and compound was administered i.v. qw. Tumor response were reported with the measures of tumor volumes or bioluminescence from the treatment start. […]

BTK C481S = target: T1, BTK C481S (Homo sapiens, UniProt Q06187, C481S); experiment: PD screen in TMD8 BTK C481S mutant tumor-bearing mice, BTK levels and compound concentrations in blood and tumor; assay type: in vivo, mouse
T1 construct: endogenous in cells; host or cells: TMD8 BTK C481S mutant tumour xenografts in mice
T1 sequence (Q06187 whole entry C481S): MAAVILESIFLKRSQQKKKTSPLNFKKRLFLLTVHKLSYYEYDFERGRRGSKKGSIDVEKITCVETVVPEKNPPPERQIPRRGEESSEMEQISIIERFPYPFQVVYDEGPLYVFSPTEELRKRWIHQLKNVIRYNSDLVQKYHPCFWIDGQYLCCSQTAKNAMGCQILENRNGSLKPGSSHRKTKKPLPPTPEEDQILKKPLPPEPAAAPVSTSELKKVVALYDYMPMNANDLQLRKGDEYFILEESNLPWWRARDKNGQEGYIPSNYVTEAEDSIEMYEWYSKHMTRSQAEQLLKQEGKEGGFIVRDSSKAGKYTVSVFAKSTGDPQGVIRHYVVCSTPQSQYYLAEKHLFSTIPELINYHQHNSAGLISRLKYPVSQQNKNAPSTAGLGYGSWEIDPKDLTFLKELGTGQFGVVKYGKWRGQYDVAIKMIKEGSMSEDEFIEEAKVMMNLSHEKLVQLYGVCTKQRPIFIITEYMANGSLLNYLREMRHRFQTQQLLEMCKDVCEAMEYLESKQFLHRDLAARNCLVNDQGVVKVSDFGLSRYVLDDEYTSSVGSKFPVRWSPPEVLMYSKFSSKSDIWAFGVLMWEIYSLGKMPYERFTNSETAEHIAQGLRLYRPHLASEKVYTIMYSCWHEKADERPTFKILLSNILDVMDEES
How it was run: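 Single compound injection in mice bearing TMD8 BTK C481S tumors, groups of 2, with blood and tumor sampled at day 0, 4, 7 and sometimes 10. Compound levels measured by UPLC/MS-MS and BTK levels by Meso Scale Discovery.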

[2] = BTK FAC plasma stability assay, PBS buffer arm; assay type: physicochemical; conditions: for Plasma stability (h) PBS: incubation to 24 h
How it was run: (§7)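 Compound from a 500 µM acetonitrile:water working solution was spiked into K3-EDTA plasma or Dulbecco's PBS and incubated with shaking at 38 °C. Samples taken at 0, 2, 6 and 24 h were precipitated with cold acetonitrile containing glyburide internal standard. Semi-quantitative LC-MS/MS used analyte:internal standard peak area ratios.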

[3] = BTK FAC plasma stability assay, mouse plasma; assay type: in vitro ADME; conditions: for Plasma stability (h) mouse: incubation to 24 h
How it was run: as §7

[4] = BTK FAC plasma stability assay, rat plasma; assay type: in vitro ADME; conditions: for Plasma stability (h) rat: incubation to 24 h
How it was run: as §7

[5] = BTK FAC plasma stability assay, dog plasma; assay type: in vitro ADME
[6] = BTK FAC plasma stability assay, cyno plasma; assay type: in vitro ADME, cynomolgus monkey
[7] = In vivo pharmacokinetic study in mice (i.v. or s.c.), FAC and payload in blood; set-up: species or system mouse; conditions: male, C57/B16, mouse, in vivo, iv; analyte FAC; FAC i.v. dose 10 umol/kg; read-out: FAC AUC-uM.h mouse
Procedure: as §1, §2, §3, §4, §5, §6

[8] = In vivo pharmacokinetic study in Beagle dogs (i.v. or s.c.), FAC and payload in blood; set-up: species or system dog; conditions: analyte payload after FAC i.v. dose 1 umol/kg
Procedure: as §1
(§8) Between 1 and 10 µM/kg FAC was administered either intravenously or subcutaneously as a solution in 10 mM PBS with NaOH (dose volume 0.4 mL/kg in dog and monkey s.c. and 0.2 mL/kg i.v. in monkey). Serial 100 µL blood samples were collected via venipuncture of the cephalic vein at defined timepoints to 336 hours (into EDTA coated tubes).
as §3, §4, §5

[9] = In vivo pharmacokinetic study in Cynomolgus monkeys (i.v. or s.c.), FAC and payload in blood; set-up: species or system cynomolgus monkey; conditions: analyte FAC, FAC i.v. dose 1 umol/kg
Procedure: as §1, §8, §3, §4, §5

SMILES | C0 ([1]; analyte FAC, FAC i.v. dose 10 umol/kg, read-out: FAC C0-uM rat) [µM] | Payload C0-uM Rat ([1]; analyte payload after FAC i.v. dose 10 umol/kg) [µM] | AUC ([1]; male, Sprague-Dawley, rat, in vivo, iv, analyte FAC, FAC i.v. dose 10 umol/kg, read-out: FAC AUC-uM.h rat) [µM·h] | Duration of BTK degradation in mouse ≥90% (BTK C481S; i.v., 25 umol/kg) [days] | Duration of BTK degradation in mouse ≥90% (BTK C481S; s.c., 25 umol/kg) [days] | % Release of degrader after 24 h PBS [2] [%] | Plasma stability (h) PBS [2] [h] | % Release of degrader after 24 h mouse [3] [%] | Plasma stability (h) mouse [3] [h] | % Release of degrader after 24 h rat [4] [%] | Plasma stability (h) rat [4] [h] | Plasma stability (h) dog [5] [h] | % Release of degrader after 24 h dog [5] [%] | Plasma stability (h) cyno [6] [h] | % Release of degrader after 24 h cyno [6] [%] | AUC [7] [µM·h] | Payload C0-uM dog [8] [µM] | Duration of BTK degradation in mouse ≥90% (BTK C481S; i.v., 50 umol/kg) [days] | C0 ([9]; read-out: FAC C0-uM cyno) [µM] | AUC ([9]; male, cynomolgus monkey, whole blood, iv, read-out: FAC AUC-uM.h cyno) [µM·h]
COc1ccc(C(=O)N2CCC3(CCN(CCc4ccc(-c5cc6c(-c7cc(F)cc(NC(=O)c8ccc(C(C)(C)OC(=O)CNC(=O)CCOCCOCCOCCOCCOCCOCCOCCOCCOCCOCCOCCOCCNC(=O)C(CCCCCCCCCCCCCCP(=O)(O)O)(CCCCCCCCCCCCCCP(=O)(O)O)C(=O)O)cc8F)c7C)ncnc6[nH]5)cc4)CC3)CC2)cc1N1CCC(=O)NC1=O [Example A28, 2-(4-((3-(6-(4-(2-(9-(3-(2,4-dioxotetrahydropyrimidin-1(2H)-yl)-4-methoxybenzoyl)-3,9-diazaspiro[5.5]undecan-3-yl)ethyl)phenyl)-7H-pyrrolo[2,3-d]pyrimidin-4-yl)-5-fluoro-2-methylphenyl)carbamoyl)-3-fluorophenyl)-2-methyl-4,7,47-trioxo-48,48-bis(14-phosphonotetradecyl)-3,10,13,16,19,22,25,28,31,34,37,40,43-tridecaoxa-6,46-diazanonatetracontan-49-oic acid] | 57 | 0.21 | 704 | 10 | 10 |  |  |  |  |  |  |  |  |  |  |  |  |  |  | 
CCCCCCCCCCCN(C(=O)CCCCCCCCCC(=O)O)C(CCC(=O)NCCOCCOCCOCCOCCOCCOCCOCCOCCOCCOCCOCCOCCC(=O)NCc1ccc(CC(=O)OC(C)(C)c2ccc(C(=O)Nc3cc(F)cc(-c4ncnc5[nH]c(-c6ccc(CCN7CCC8(CC7)CCN(C(=O)c7ccc(OC)c(N9CCC(=O)NC9=O)c7)CC8)cc6)cc45)c3C)c(F)c2)cc1)C(=O)O (stereo not shown) [Example A23, 46-Carboxy-1-(4-(2-((2-(4-((3-(6-(4-(2-(9-(3-(2,4-dioxotetrahydropyrimidin-1(2H)-yl)-4-methoxybenzoyl)-3,9-diazaspiro[5.5]undecan-3-yl)ethyl)phenyl)-7H-pyrrolo[2,3-d]pyrimidin-4-yl)-5-fluoro-2-methylphenyl)carbamoyl)-3-fluorophenyl)propan-2-yl)oxy)-2-oxoethyl)phenyl)-3,43,48-trioxo-47-undecyl-6,9,12,15,18,21,24,27,30,33,36,39-dodecaoxa-2,42,47-triazaoctapentacontan-58-oic acid] |  |  |  |  |  | 0.2 | >48 | 5.8 | >48 | 1.1 | >48 | >48 | 0.8 | >48 | 0.6 | 856 | 0.59 |  |  | 
CCCCCCCCCCCN(C(=O)CCCCCCCCCC(=O)O)C(CCC(=O)NCCOCCOCCOCCOCCOCCOCCOCCOCCOCCOCCOCCOCCC(=O)NC(C)(C)CC(=O)OC(C)(C)c1ccc(C(=O)Nc2cc(F)cc(-c3ncnc4[nH]c(-c5ccc(CCN6CCC7(CC6)CCN(C(=O)c6ccc(OC)c(N8CCC(=O)NC8=O)c6)CC7)cc5)cc34)c2C)c(F)c1)C(=O)O (stereo not shown) [Example A18, 51-Carboxy-2-(4-((3-(6-(4-(2-(9-(3-(2,4-dioxotetrahydropyrimidin-1(2H)-yl)-4-methoxybenzoyl)-3,9-diazaspiro[5.5]undecan-3-yl)ethyl)phenyl)-7H-pyrrolo[2,3-d]pyrimidin-4-yl)-5-fluoro-2-methylphenyl)carbamoyl)-3-fluorophenyl)-2,6,6-trimethyl-4,8,48,53-tetraoxo-52-undecyl-3,11,14,17,20,23,26,29,32,35,38,41,44-tridecaoxa-7,47,52-triazatrihexacontan-63-oic acid] |  |  |  |  |  | 0.6 | >48 | 0.8 | >48 | 0.2 | >48 | >48 | 0.3 | >48 | 0.4 |  | 0.3 | <4 |  | 
CCCCCCCCCCCN(C(=O)CCCCCCCCCC(=O)O)[C@@H](CCC(=O)NCCOCCOCCOCCOCCOCCOCCOCCOCCOCCOCCOCCOCCC(=O)NCC(=O)OC(C)(C)c1ccc(C(=O)Nc2cc(F)cc(-c3ncnc4[nH]c(-c5ccc(CCN6CCC7(CC6)CCN(C(=O)c6ccc(OC)c(N8CCC(=O)NC8=O)c6)CC7)cc5)cc34)c2C)c(F)c1)C(=O)O [Example A2, (S)-50-Carboxy-2-(4-((3-(6-(4-(2-(9-(3-(2,4-dioxotetrahydropyrimidin-1(2H)-yl)-4-methoxybenzoyl)-3,9-diazaspiro[5.5]undecan-3-yl)ethyl)phenyl)-7H-pyrrolo[2,3-d]pyrimidin-4-yl)-5-fluoro-2-methylphenyl)carbamoyl)-3-fluorophenyl)-2-methyl-4,7,47,52-tetraoxo-51-undecyl-3,10,13,16,19,22,25,28,31,34,37,40,43-tridecaoxa-6,46,51-triazadohexacontan-62-oic acid] |  |  |  |  |  | 0.8 | >48 | 3.4 | 12.3 | 8.9 | 18.1 | >48 | 7.3 |  |  |  | 0.2 |  | 56.6 | 590
